From US20230383000A1

Biological target: human IL-1R3 on cells (SK-MEL-30, A549, HEK-293 and other human cell lines) (human) (UniProt Q9NPH3)
Assay: flow cytometry on SK-MEL-30 cells (high IL-1R3 expression), 1:2 dilution series from 20 µg/ml

Sequence of human IL-1R3 on cells (SK-MEL-30, A549, HEK-293 and other human cell lines) (human) (Q9NPH3 21-570): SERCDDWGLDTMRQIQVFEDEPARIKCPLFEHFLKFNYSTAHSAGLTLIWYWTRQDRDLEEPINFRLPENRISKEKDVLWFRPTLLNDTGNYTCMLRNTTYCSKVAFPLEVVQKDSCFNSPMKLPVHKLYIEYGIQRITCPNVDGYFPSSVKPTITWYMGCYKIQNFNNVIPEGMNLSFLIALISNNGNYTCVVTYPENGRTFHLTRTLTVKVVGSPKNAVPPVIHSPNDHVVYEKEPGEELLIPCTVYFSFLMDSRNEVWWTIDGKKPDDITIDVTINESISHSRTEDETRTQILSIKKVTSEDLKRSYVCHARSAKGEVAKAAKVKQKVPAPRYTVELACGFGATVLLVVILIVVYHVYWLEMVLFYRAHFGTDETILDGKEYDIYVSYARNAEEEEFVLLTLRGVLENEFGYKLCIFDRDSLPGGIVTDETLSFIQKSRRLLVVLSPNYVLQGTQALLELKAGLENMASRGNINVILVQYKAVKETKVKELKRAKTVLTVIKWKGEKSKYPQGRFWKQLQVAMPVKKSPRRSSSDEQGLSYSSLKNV

B1: MAB-16-0030 (humanized anti-IL-1R3 IgG1-LALA antibody) (antibody, from another filing, V domains shown)
VH: EVQLEESGGRLVQPGTSLRLSCAVSGFSLSSYDMSWVRQAPGKGLEWVSTIYIGGTTAYASWPKGRFTISKTNSKNTLYLQMNSLRAEDTAVYFCARLQGANYYNSLALWGQGTLVTVSS
VL: DVQMTQSPSSLSASVGDRVTITCQASQSIYSFLSWYQQKPGQAPKLLIYAASDLESGVPSRFSGSGSGTDFTLTISSLQPEDFATYYCQCNYIIDYGAFGQGTKVVIKR
**Q.** With B1 as the binder, how does the EC50 read?
**A.** 0.307 mg/L
